According to US20230203125A1:

Target: CD47 (UniProt Q08722)
Experiment: cell-based or functional assay

Sequence of UniProt Q08722 (Q08722 19-323 limits assumed): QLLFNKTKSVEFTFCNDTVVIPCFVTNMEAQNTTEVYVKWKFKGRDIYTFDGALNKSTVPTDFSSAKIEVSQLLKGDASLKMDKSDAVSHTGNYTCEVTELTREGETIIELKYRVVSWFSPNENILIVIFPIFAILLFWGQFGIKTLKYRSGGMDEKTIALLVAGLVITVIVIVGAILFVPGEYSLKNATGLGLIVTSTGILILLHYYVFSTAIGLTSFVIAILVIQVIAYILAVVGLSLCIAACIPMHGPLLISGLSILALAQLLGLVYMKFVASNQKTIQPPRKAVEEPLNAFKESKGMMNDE

- Specific Lysis (%) of target cells DLD1-CEA, 24 h, effector-target ratio 1:1: 45.2%
Substance: SIRPγ fusion protein SIRPγ-CD28TM-CD28 (receptor)
